Each block holds one binder with its values, some of them ahead of it. Numbered stars: 1 amine (or outer) side, 2 acyl side, 3 side chain; on linkers, the order of the positions; unused ones are H or OH. Bridge positions count the residues as written; N and C are the ends. Square brackets hold non-standard residues; d marks the D form. Ends that are not written are not given here. * marks the point of attachment. X14 = (2,4-dioxoimidazolidin-1-yl)acetic acid, O=C1CN(CC(=O)*)C(=O)N1; (R)‑Pyrrolidine‑3‑acetic acid = O=C(C[C@H]1CCN([*:1])C1)[*:2]; Ida = iminodiacetic acid, O=C(CN(CC(=O)[*:3])[*:1])[*:2]; Pro(3S,4R-methano) = O=C(O)[C@H]1NC[C@@H]2C[C@@H]21; Pro(cis-4-CF3) = O=C(O)[C@@H]1C[C@H](C(F)(F)F)CN1; Oic = O=C(O)[C@@H]1C[C@@H]2CCCC[C@@H]2N1; tBuAla = CC(C)(C)C[C@H](N)C(=O)O; Pen = CC(C)(S)[C@H](N)C(=O)O; Ahx = NCCCCCC(=O)O; Sar = CNCC(=O)O
Assays:
[1] = molecular target: T1, Recombinant human MASP1 enzyme (fragment corresponding to amino acids 297-699, C-terminal His Tag) (human, UniProt P48740 297-699); test: cell-based or functional assay
T1 sequence: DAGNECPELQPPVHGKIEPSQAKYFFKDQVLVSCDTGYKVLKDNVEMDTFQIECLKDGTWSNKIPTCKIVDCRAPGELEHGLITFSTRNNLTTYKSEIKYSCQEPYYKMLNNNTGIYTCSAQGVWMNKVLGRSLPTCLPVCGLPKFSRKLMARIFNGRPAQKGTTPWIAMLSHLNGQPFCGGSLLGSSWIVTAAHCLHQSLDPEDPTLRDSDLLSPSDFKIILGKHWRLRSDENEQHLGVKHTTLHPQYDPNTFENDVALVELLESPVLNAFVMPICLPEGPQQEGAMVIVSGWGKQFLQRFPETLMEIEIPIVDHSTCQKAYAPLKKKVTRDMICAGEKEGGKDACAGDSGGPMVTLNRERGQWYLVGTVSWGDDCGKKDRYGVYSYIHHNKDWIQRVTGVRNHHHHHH

[2] = molecular target: Recombinant human MASP2 enzyme (fragment corresponding to amino acids 297-686, C-terminal His Tag) (human, UniProt O00187 297-686); test: cell-based or functional assay
Chain of Recombinant human MASP2 enzyme (fragment corresponding to amino acids 297-686, C-terminal His Tag) (O00187 other isoform, or with tags, fused parts or gaps limits assumed): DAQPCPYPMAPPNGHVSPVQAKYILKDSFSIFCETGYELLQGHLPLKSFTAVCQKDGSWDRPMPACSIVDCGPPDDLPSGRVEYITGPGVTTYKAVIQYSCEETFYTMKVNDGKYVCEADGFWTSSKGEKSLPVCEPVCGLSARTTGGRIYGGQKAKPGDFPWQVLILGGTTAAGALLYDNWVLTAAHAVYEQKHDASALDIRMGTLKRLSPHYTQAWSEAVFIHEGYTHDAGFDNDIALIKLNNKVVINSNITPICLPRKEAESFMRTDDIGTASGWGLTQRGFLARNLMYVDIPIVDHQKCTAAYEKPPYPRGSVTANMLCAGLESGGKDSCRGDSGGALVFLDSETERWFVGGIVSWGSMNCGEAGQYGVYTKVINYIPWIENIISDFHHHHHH

B1: ((2,4-dioxoimidazolidin-1-yl)acetic acid)-IC+SRSLP-(Oic)-I-(Pen)+IPD-OH (peptide)
peptide: X14-ICSRSLP[Oic]I[Pen]IPD-OH
modifications: disulfide 2-10
SMILES: CC[C@H](C)[C@H](NC(=O)CN1CC(=O)NC1=O)C(=O)N[C@H]1CSSC(C)(C)[C@@H](C(=O)N[C@H](C(=O)N2CCC[C@H]2C(=O)N[C@@H](CC(=O)O)C(=O)O)[C@@H](C)CC)NC(=O)[C@H]([C@@H](C)CC)NC(=O)[C@@H]2C[C@@H]3CCCC[C@@H]3N2C(=O)[C@@H]2CCCN2C(=O)[C@H](CC(C)C)NC(=O)[C@H](CO)NC(=O)[C@H](CCCNC(=N)N)NC(=O)[C@H](CO)NC1=O
human MASP1 IC50 [1]: 17 nM
human MASP2 IC50 [2]: 45 nM

B4: ((N-Me)G)-IC+SRSLP-(Oic)-I-(Pen)+IPD-(Ahx)-OH (peptide)
peptide: [Sar]ICSRSLP[Oic]I[Pen]IPD[Ahx]-OH
modifications: disulfide 3-11; N-terminus assumed
SMILES: CC[C@H](C)[C@H](NC(=O)CNC)C(=O)N[C@H]1CSSC(C)(C)[C@@H](C(=O)N[C@H](C(=O)N2CCC[C@H]2C(=O)N[C@@H](CC(=O)O)C(=O)NCCCCCC(=O)O)[C@@H](C)CC)NC(=O)[C@H]([C@@H](C)CC)NC(=O)[C@@H]2C[C@@H]3CCCC[C@@H]3N2C(=O)[C@@H]2CCCN2C(=O)[C@H](CC(C)C)NC(=O)[C@H](CO)NC(=O)[C@H](CCCNC(=N)N)NC(=O)[C@H](CO)NC1=O
human MASP1 IC50 [1]: 0.41 nM
human MASP2 IC50 [2]: 120 nM

B5: ((N-Me)G)-IC+SRS-((tBu)A)-P-((1S,2S,5R)-3-azabicyclo[3.1.0]hexane-2-carboxylic acid)-I-(Pen)+IPD-OH (peptide)
peptide: [Sar]ICSRS[tBuAla]P[Pro(3S,4R-methano)]I[Pen]IPD-OH
modifications: disulfide 3-11; N-terminus assumed
SMILES: CC[C@H](C)[C@H](NC(=O)CNC)C(=O)N[C@H]1CSSC(C)(C)[C@@H](C(=O)N[C@H](C(=O)N2CCC[C@H]2C(=O)N[C@@H](CC(=O)O)C(=O)O)[C@@H](C)CC)NC(=O)[C@H]([C@@H](C)CC)NC(=O)[C@@H]2[C@H]3C[C@H]3CN2C(=O)[C@@H]2CCCN2C(=O)[C@H](CC(C)(C)C)NC(=O)[C@H](CO)NC(=O)[C@H](CCCNC(=N)N)NC(=O)[C@H](CO)NC1=O
human MASP1 IC50 [1]: 6.6 nM
human MASP2 IC50 [2]: 104 nM

B6: ((N-Me)G)-IC+SRSLP-(Oic)-I-(Pen)+IP-((R)-Pyrrolidine-3-acetic acid)-OH (peptide)
peptide: [Sar]ICSRSLP[Oic]I[Pen]IP[(R)‑Pyrrolidine‑3‑acetic acid]-OH
modifications: disulfide 3-11; N-terminus assumed
SMILES: CC[C@H](C)[C@H](NC(=O)CNC)C(=O)N[C@H]1CSSC(C)(C)[C@@H](C(=O)N[C@H](C(=O)N2CCC[C@H]2C(=O)N2CC[C@H](CC(=O)O)C2)[C@@H](C)CC)NC(=O)[C@H]([C@@H](C)CC)NC(=O)[C@@H]2C[C@@H]3CCCC[C@@H]3N2C(=O)[C@@H]2CCCN2C(=O)[C@H](CC(C)C)NC(=O)[C@H](CO)NC(=O)[C@H](CCCNC(=N)N)NC(=O)[C@H](CO)NC1=O
human MASP1 IC50 [1]: 6.78 nM
human MASP2 IC50 [2]: 116 nM

Continued, values first:

human MASP1 IC50 [1]: 7.8 nM
human MASP2 IC50 [2]: 1000 nM
B2: AIC+SRS-((tBu)A)-P-((4-CF3)P)-IC+IPD-OH (peptide)
peptide: AICSRS[tBuAla]P[Pro(cis-4-CF3)]ICIPD-OH
modifications: disulfide 3-11; N-terminus assumed
SMILES: CC[C@H](C)[C@H](NC(=O)[C@H](C)N)C(=O)N[C@H]1CSSC[C@@H](C(=O)N[C@H](C(=O)N2CCC[C@H]2C(=O)N[C@@H](CC(=O)O)C(=O)O)[C@@H](C)CC)NC(=O)[C@H]([C@@H](C)CC)NC(=O)[C@@H]2C[C@H](C(F)(F)F)CN2C(=O)[C@@H]2CCCN2C(=O)[C@H](CC(C)(C)C)NC(=O)[C@H](CO)NC(=O)[C@H](CCCNC(=N)N)NC(=O)[C@H](CO)NC1=O

human MASP1 IC50 [1]: 7.5 nM
human MASP2 IC50 [2]: 65 nM
Binder: [dP]ICSRSLP[Oic]I[Pen]IP[Ida]-OH (disulfide 3-11; also: HCl salt) [pIC+SRSLP-(Oic)-I-(Pen)+IP-(Ida)-OH (HCl salt)]

human MASP1 IC50 [1]: 1 nM
human MASP2 IC50 [2]: 45 nM
B3: ((N-Me)G)-IC+SRSLP-(Oic)-I-(Pen)+IPGD-OH (peptide)
peptide: [Sar]ICSRSLP[Oic]I[Pen]IPGD-OH
modifications: disulfide 3-11; N-terminus assumed
SMILES: CC[C@H](C)[C@H](NC(=O)CNC)C(=O)N[C@H]1CSSC(C)(C)[C@@H](C(=O)N[C@H](C(=O)N2CCC[C@H]2C(=O)NCC(=O)N[C@@H](CC(=O)O)C(=O)O)[C@@H](C)CC)NC(=O)[C@H]([C@@H](C)CC)NC(=O)[C@@H]2C[C@@H]3CCCC[C@@H]3N2C(=O)[C@@H]2CCCN2C(=O)[C@H](CC(C)C)NC(=O)[C@H](CO)NC(=O)[C@H](CCCNC(=N)N)NC(=O)[C@H](CO)NC1=O

human MASP1 IC50 [1]: 5.1 nM
human MASP2 IC50 [2]: 210 nM
Binder: AICSRSLP[Oic]I[Pen]IP[βDap]-OH (disulfide 3-11; also: C-terminal Dap bonded through its side-chain amino group) [AIC+SRSLP-(Oic)-I-(Pen)+IP-(*Dap)-OH]
